Data on 3 molecules can be found in patent US20250129150A1 (APOGEE THERAPEUTICS, published 2025).

In experiment [1] the target is T1, hIL-13 (human, UniProt P35225 35-146, limits assumed). Kind of experiment: cell-based or functional assay.
Experiment [2] addresses T1, hIL-13. Put plainly: cell-based or functional assay. The source holds these as a separate data set.
Experiment [3] deals with T2, recombinant human FcRn (human, UniProt P55899 24-297; P61769 21-119).
T2 construct: also called neonatal Fc receptor
T2 sequence (P55899 24-297 limits assumed, chain 1 of 2): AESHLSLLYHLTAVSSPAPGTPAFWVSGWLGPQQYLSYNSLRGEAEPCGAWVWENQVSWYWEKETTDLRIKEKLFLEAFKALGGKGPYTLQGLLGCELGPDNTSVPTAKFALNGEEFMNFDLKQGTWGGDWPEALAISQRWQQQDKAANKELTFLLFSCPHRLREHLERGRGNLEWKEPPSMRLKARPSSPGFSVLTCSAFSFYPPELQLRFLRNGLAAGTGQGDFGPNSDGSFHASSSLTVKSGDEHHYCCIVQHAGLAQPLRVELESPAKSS
T2 sequence (P61769 21-119 limits assumed, chain 2 of 2): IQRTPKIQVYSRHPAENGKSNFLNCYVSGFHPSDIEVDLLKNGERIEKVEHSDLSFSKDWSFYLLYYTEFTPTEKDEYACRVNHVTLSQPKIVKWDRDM
Put plainly: SPR, antibody captured on anti-kappa chip, FcRn as analyte, pH 5.8; pH 5.8. How it is done: (§1) Binding affinity (KD) of antibodies to Fc receptors and C1q were determined through surface plasmon resonance (SPR) using a Biacore 8K. Briefly, an SPR chip functionalized with an anti-kappa light-chain antibody was used to capture purified antibodies normalized to […], at a flow rate of 10 uL/min for 90 seconds or 120 seconds. A paired channel with only buffer was used as reference. Subsequently, varying concentrations of recombinant human CD32a (167H), CD32a (167R), CD32b, CD16a (176V), CD16a (176F), FcRn, CD64, and C1q were injected over the surface with captured purified antibody as well as the reference channel. Regeneration of the chip between different concentrations of different antigens were performed with 10 mM Glycine HCl, pH 1.5 and antibody was again captured. Association and dissociation rate constants were subsequently determined through fitting to a 1:1 Langmuir binding model or steady-state analysis model, whichever applicable, using the Biacore Insight Evaluation Software from which a KD value was derived.
(In general: In SPR one partner is held on a chip, and binding of the other changes the refractive index at the surface.)

In experiment [4] the target is T3, recombinant human CD32a (167R) (human, UniProt P12318 36-218).
T3 sequence (looked up): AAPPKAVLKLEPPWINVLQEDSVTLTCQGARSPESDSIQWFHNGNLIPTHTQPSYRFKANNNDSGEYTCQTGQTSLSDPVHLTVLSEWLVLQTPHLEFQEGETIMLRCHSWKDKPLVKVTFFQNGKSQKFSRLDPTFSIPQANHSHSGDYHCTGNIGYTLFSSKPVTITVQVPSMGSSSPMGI
Put plainly: SPR, antibody captured on anti-kappa chip, recombinant human receptor as analyte. As for the experimental part: as §1

Experiment [5] concerns the target recombinant human CD64 (human, UniProt P12314 16-288). Described as above. How it is done: as §1
Experiment [6] has as its target T4, recombinant human CD32b (human, UniProt P31994 46-217).
T4 sequence (looked up): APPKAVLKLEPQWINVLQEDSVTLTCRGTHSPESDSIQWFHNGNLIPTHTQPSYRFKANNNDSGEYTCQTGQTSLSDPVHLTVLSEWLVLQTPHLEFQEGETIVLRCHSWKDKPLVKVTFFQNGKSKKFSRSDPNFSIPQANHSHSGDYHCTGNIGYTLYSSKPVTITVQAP
The experiment is described as above. As for the experimental part: as §1

Experiment [7] has as its target T5, Recombinant Human IL-13 Protein, His Tag (Acro Cat. IL3-H52H4) (human, UniProt P35225 35-146).
T5 construct: Bought protein; also called Hu IL-13; not shown: His Tag
Kind of experiment: SPR (Biacore 8K), mAb captured on Protein G chip, IL-13 as analyte. The method, boiled down:
(§2)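 Antigen injected multi-cycle over freshly captured mAb; surfaces regenerated with glycine pH 1.5 for 30 sec. Double-referenced sensorgrams fit to a 1:1 binding model for apparent ka and kd; KD = kd/ka.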

Experiment [8] concerns the target T6, Recombinant Cynomolgus IL-13 Protein, His Tag (SINO BIOLOGICAL, Cat. 11057-C07H) (cynomolgus monkey, UniProt Q5I6E4 19-132 (Macaca thibetana entry)).
T6 construct: also called Cyno IL-13; cynomolgus monkey IL-13
T6 chain: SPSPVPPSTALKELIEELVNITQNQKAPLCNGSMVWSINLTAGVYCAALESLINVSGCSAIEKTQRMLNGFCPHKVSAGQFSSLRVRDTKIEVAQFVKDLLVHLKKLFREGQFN
Described as above. The method, boiled down:
as §2

Experiment [9] has as its target T1, hIL-13. Put plainly: cell-based or functional assay. This is another data set of the same source.
The target in experiment [10] is T1, hIL-13. Put plainly: cell-based or functional assay. The source holds these as a separate data set.
The target in experiment [11] is T1, hIL-13. Put plainly: cell-based or functional assay. This is another data set of the same source.
Experiment [12] deals with biotinylated hIL-13 (human, UniProt P35225 35-146, limits assumed, biotinylated (site not stated)). Put plainly: FACS; blockade of biotinylated hIL-13 (0.05 ug/mL) binding to HEK293 cells expressing hIL-13Rα1/hIL-4Rα. The method, boiled down:
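HEK293 cells stably co-expressing hIL-13Rα and hIL-4Rα (200,000/well) stained at 4 °C for 1 h, then a further 1 h at 4 °C in the dark. Median fluorescence intensity read by flow cytometry.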
Background: A flow cytometer gives signals particle by particle.

Experiment [13] deals with T1, hIL-13. Kind of experiment: cell-based or functional assay. The source holds these as a separate data set.
For experiment [14], the target named is T1, hIL-13. Put plainly: ELISA. On the technique in general: ELISA stands for enzyme-linked immunosorbent assay.
In experiment [15] the target is T7, recombinant human C1q (human, UniProt P02745 23-245; P02746 28-253; P02747 29-245, limits assumed).
T7 construct: subunit composition is from general knowledge
T7 sequence (P02745 23-245 limits assumed, chain 1 of 3): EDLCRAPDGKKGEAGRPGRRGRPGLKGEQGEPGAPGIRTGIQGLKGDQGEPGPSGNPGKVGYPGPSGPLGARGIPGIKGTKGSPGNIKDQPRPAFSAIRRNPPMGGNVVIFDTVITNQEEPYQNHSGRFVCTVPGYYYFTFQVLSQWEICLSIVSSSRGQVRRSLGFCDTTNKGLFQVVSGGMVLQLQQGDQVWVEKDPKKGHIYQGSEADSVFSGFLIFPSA
T7 sequence (P02746 28-253 limits assumed, chain 2 of 3): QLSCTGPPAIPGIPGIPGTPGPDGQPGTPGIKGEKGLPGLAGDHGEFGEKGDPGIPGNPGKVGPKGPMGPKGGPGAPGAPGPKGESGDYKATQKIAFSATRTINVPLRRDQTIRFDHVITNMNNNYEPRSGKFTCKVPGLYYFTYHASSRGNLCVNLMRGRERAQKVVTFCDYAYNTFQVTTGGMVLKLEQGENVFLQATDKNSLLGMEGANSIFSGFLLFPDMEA
T7 sequence (P02747 29-245 limits assumed, chain 3 of 3): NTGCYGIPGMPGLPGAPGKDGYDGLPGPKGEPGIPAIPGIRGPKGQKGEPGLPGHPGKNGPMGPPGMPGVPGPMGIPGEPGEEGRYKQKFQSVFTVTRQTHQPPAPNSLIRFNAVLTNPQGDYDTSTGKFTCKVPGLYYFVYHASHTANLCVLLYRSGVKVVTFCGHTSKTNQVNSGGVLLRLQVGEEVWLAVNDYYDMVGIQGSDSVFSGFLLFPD
Put plainly: SPR, antibody captured on anti-kappa chip, C1q as analyte; signal relative to rituximab. As for the experimental part: as §1

The target in experiment [16] is recombinant human CD16a (176V) (human, UniProt P08637 17-208). Put plainly: SPR, antibody captured on anti-kappa chip, recombinant human receptor as analyte. As for the experimental part:
as §1

Chain of recombinant human CD64 (P12314 16-288 limits assumed): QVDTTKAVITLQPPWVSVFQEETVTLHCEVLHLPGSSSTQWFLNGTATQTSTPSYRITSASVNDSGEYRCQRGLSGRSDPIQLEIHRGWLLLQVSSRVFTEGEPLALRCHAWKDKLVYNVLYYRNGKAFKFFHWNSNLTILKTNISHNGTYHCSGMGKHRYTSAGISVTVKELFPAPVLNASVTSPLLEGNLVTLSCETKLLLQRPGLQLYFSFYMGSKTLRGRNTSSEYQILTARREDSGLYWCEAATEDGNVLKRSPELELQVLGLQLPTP
Chain of biotinylated hIL-13 (P35225 other isoform, or with tags, fused parts or gaps limits assumed): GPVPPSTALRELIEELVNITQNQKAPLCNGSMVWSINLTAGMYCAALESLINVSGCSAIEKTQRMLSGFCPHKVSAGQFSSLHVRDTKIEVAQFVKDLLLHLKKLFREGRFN
T5 sequence (P35225 other isoform, or with tags, fused parts or gaps limits assumed): as above
T1 sequence (P35225 other isoform, or with tags, fused parts or gaps limits assumed): as above
Chain of recombinant human CD16a (176V) (P08637 17-208 F176V): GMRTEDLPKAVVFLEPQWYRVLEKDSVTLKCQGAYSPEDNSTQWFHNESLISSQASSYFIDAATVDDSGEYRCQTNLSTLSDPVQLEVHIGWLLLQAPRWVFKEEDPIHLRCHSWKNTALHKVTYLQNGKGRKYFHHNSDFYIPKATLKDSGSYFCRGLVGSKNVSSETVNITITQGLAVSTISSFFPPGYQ

B1: Lebrikizumab (Construct 1) (antibody, human IgG4 S228P, kappa)
heavy: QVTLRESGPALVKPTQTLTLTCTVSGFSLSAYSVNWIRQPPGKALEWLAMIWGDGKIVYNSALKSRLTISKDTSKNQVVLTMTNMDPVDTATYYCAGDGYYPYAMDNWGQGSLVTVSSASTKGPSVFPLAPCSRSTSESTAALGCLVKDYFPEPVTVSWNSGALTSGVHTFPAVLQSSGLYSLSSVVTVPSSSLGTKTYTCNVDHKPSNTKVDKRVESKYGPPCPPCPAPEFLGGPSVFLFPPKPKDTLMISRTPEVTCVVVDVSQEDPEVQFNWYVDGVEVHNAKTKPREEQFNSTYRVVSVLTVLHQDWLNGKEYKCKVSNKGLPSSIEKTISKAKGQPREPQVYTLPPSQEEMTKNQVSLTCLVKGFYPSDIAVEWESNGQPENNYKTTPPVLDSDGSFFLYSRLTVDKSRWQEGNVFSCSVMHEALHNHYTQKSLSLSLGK
light: DIVMTQSPDSLSVSLGERATINCRASKSVDSYGNSFMHWYQQKPGQPPKLLIYLASNLESGVPDRFSGSGSGTDFTLTISSLQAEDVAVYYCQQNNEDPRTFGGGTKVEIKRTVAAPSVFIFPPSDEQLKSGTASVVCLLNNFYPREAKVQWKVDNALQSGNSQESVTEQDSKDSTYSLSSTLTLSKADYEKHKVYACEVTHQGLSSPVTKSFNRGEC
notes: also called Lebrikizumab-HC; Lebrikizumab-LC
For the molecule B1, the “CCL2 Secretion IC50 (HaCaT cells)” value in experiment [1] was found to be 0.076 nM. The “CCL26 Secretion IC50 (HaCaT cells)” value in experiment [1] was determined as 0.055 nM. For the same molecule, the “NTRK1 Expression IC50 (HaCaT cells)” value in experiment [1] was 0.056 nM. In experiment [2], the “TARC Release IC50 (A549 cells)” value turned out to be 0.9 nM. Further, the Kd in [3] came to 1060 nM; in experiment [4], 2380 nM; in [5], 1.12 nM; in experiment [6], 2930 nM; in experiment [7], 0.131 nM; in experiment [8], 0.309 nM. Also, the “pSTAT6 Inhibition IC50 (HT-29 cells)” value in experiment [9] was determined as 0.23 nM. Moreover, the “TARC Inhibition IC50 (A549 cells)” value in experiment [10] is 0.74 nM. Besides, in experiment [11], the “CD23 Expression Inhibition IC50 (human PBMCs)” value was determined as 0.81 nM. In addition, the “pSTAT6 Inhibition IC50 (human PBMCs)” value in [11] is 0.38 nM. In experiment [12], this molecule yielded an IC50 of 1.11 nM. In addition, the “TF-1 Proliferation Inhibition IC50” value in experiment [13] is 0.2 nM.

B2: Construct 136 (antibody, human IgG1, kappa, L234A L235A)
heavy: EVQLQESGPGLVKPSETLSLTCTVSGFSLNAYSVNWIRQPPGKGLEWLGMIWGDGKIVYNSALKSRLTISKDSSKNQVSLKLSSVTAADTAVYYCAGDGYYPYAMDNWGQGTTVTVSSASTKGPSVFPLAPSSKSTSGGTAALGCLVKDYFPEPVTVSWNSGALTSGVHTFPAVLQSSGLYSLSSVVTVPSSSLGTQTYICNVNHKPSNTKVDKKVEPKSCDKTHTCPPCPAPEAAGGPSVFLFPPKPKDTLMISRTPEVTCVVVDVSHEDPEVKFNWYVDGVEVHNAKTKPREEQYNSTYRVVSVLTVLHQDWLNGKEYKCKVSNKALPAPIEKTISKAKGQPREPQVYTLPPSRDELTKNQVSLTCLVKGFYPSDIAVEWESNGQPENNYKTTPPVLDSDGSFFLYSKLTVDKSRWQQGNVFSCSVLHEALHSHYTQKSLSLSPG
light: DIQLTQSPSSLSASVGDRVTITCRASKSVDSYGNSFMHWYQQKPGKAPKLLIYLASNLESGVPSRFSGSGSGTDFTLTISSLQPEDFATYYCQQNNEDPRTFGGGTKVEIKRTVAAPSVFIFPPSDEQLKSGTASVVCLLNNFYPREAKVQWKVDNALQSGNSQESVTEQDSKDSTYSLSSTLTLSKADYEKHKVYACEVTHQGLSSPVTKSFNRGEC
notes: also called HC1; LC6
B2: the “CCL2 Secretion IC50 (HaCaT cells)” value in [1] stood at 0.074 nM. For the same molecule, the “CCL26 Secretion IC50 (HaCaT cells)” value in experiment [1] amounted to 0.052 nM. For the same molecule, in experiment [1], the “NTRK1 Expression IC50 (HaCaT cells)” value worked out at 0.053 nM. Moreover, the Kd in [14] turned out to be 0.018 nM; in experiment [3] it was 90 nM; in experiment [16], 4670 nM; in [7], 0.0698 nM; in experiment [8] it was 0.161 nM. The “C1q (Signal Relative to Rituximab)” value in [15] turned out to be 25.4%. Further, the binding result in experiment [4], in experiment [5] and in experiment [6] was “no binding” in each case. The “pSTAT6 Inhibition IC50 (HT-29 cells)” value in experiment [9] is 0.3 nM. Besides, the “TARC Inhibition IC50 (A549 cells)” value in experiment [10] came to 0.89 nM. The IC50 in [12] is 1.02 nM. The “TF-1 Proliferation Inhibition IC50” value in experiment [13] was found to be 0.15 nM.

B3: Construct 134 (antibody, human IgG4, kappa)
heavy: EVQLQESGPGLVKPSETLSLTCTVSGFSLNAYSVNWIRQPPGKGLEWLGMIWGDGKIVYNSALKSRLTISKDSSKNQVSLKLSSVTAADTAVYYCAGDGYYPYAMDNWGQGTTVTVSSASTKGPSVFPLAPCSRSTSESTAALGCLVKDYFPEPVTVSWNSGALTSGVHTFPAVLQSSGLYSLSSVVTVPSSSLGTKTYTCNVDHKPSNTKVDKRVESKYGPPCPSCPAPEFLGGPSVFLFPPKPKDTLYITREPEVTCVVVDVSQEDPEVQFNWYVDGVEVHNAKTKPREEQFNSTYRVVSVLTVLHQDWLNGKEYKCKVSNKGLPSSIEKTISKAKGQPREPQVYTLPPSQEEMTKNQVSLTCLVKGFYPSDIAVEWESNGQPENNYKTTPPVLDSDGSFFLYSRLTVDKSRWQEGNVFSCSVMHEALHNHYTQKSLSLSLGK
light: DIQLTQSPSSLSASVGDRVTITCRASKSVDSYGNSFMHWYQQKPGKAPKLLIYLASNLESGVPSRFSGSGSGTDFTLTISSLQPEDFATYYCQQNNEDPRTFGGGTKVEIKRTVAAPSVFIFPPSDEQLKSGTASVVCLLNNFYPREAKVQWKVDNALQSGNSQESVTEQDSKDSTYSLSSTLTLSKADYEKHKVYACEVTHQGLSSPVTKSFNRGEC
notes: also called HC1; LC6
Regarding B3, the Kd in experiment [14] was 0.05 nM; in [3] it was 160 nM; in [4] it was 8140 nM; in experiment [5], 2.8 nM; in [6], 8620 nM; in [7], 0.105 nM. For the same molecule, in experiment [8], the Kd was 0.33 nM. For the same molecule, the “C1q (Signal Relative to Rituximab)” value in experiment [15] is 25.3%. The binding result in experiment [16] was “no binding”. The “pSTAT6 Inhibition IC50 (HT-29 cells)” value in experiment [9] is 0.2 nM. Moreover, the “TARC Inhibition IC50 (A549 cells)” value in experiment [10] was found to be 0.99 nM. In experiment [12], this molecule yielded a concentration for half-maximal inhibition (IC50) of 1.08 nM. Further, the “TF-1 Proliferation Inhibition IC50” value in experiment [13] was 0.18 nM.

For orientation: Kd means the free concentration of one partner at which half of the binding sites on the other are occupied at equilibrium, for simple one-to-one binding. Broadly, the IC50 is the midpoint of a concentration-inhibition curve. Low readings indicate higher potency, high ones lower potency.
